Data on 2 substances can be found in publication PMC1890003.

This assay deals with Δgpαf-BOF (recombinant nonglycosylated pro-α factor derivative labeled with BODIPY FL) (yeast). Briefly: fluorescence polarisation; BOF anisotropy; Δgpαf-BOF (0.2 μM in buffer A: 50 mM HEPES pH 7.5, 40 mM KOAc, 5 mM MgCl2) titrated at 4°C with PDI or BiP; a separate sample for each concentration.

pKd: −log10 of the molar value.

“oxidized protein disulfide isomerase (from UniProt P07237 18-508) (enzyme)”: the pKd was 6.05.
Regarding “reduced protein disulfide isomerase (from UniProt P07237 18-508) (enzyme)”, the pKd was 7.52.

The term pKd denotes the Kd on a negative log10 scale, so that one unit is a factor of ten.
